Results: JP2011016773A

Target: HAMA血清タイプ1(Roche製、品番:1767275)
Assay: forward sandwich ELISA, inhibition of HAMA bridging of anti-hCEA antibodies, blocker solution at 1 ug/ml

HAMA回避効果 [%]	HAMA回避率 [%]	Substance
61	–	マウスIgG(CHEMICON製、品番:PP54) (antibody)
–	68	Heterophilic Blocking Reagent1 (SCANTIBODIES LABORATORY，INC.製、品番:3KC534−075)
–	69	MAK33−IgG1(Roche製、品番:1200941) (antibody)
